Experimental data as given in the DeepSol protein solubility set.

Test: soluble on expression in E. coli; label from the status in PepcDB or PDB records

Sequence	soluble on expression in E. coli
MKIMIFICGEGLGHTSRCLALGKELLNAGHEIKFGAYGYSKELVEKTGYTAQEIPSEIKLVGKAGSLDLTGSIEATLKSAQLLGGPKLLKLLREFKPDVVVSDSYYLGTLAAMVLKLPVYLIINQSNMEEFFKNRGVPVRIIGKLTKKFYKEVFEKTDKILEHHHHHH	not soluble
MNPVHILAKKGEVAERVLVVGDPGRARLLSTLLQNPKLTNENRGFLVYTGKYNGETVSIATHGIGGPSIAIVLEELAMLGANVFIRYGTTGALVPYINLGEYIIVTGASYNQGGLFYQYLRDNACVASTPDFELTNKLVTSFSKRNLKYYVGNVFSSDAFYAEDEEFVKKWSSRGNIAVEMECATLFTLSKVKGWKSATVLVVSDNLAKGGIWITKEELEKSVMDGAKAVLDTLTS	soluble
MGSDKIHHHHHHACSSDDDNTVNDETTPPEEEAVVTAPDVVGTYWGNLDISMLPDGSDQEVVIADGLPKFITFSQVSDTEVKMELKEFELFINGNILKFGDIVIDKCAVKKETDASTFTGQQDLTFQGDAAALGTCATSIEGTVQSGNATMNIQVKVPALKQTVKVAFSGVKQVEESGKD	not soluble
MKRVISKILKKEKEKEEEVEEKTIGLIIDGPNILRKEFGIKLEDIKKALEKIGKIRVAKVVLNQYAPQGLIEAVVNQGFEPIIVAGDTDVRVAIEAMELIYNTDVDVIALATRDADFLPLISEAKRKGKETVVIGVEPGFSVALQNAADYIIKMEKKKEAEGY	soluble
MVTGLICFTGCSDDFLKDKKVYGSYDASVVYENYETAKSRVDFLYQSLLPSSTGGSNALTDITSAGIDDDFSKCTEEYGDYSIFNDPTASLTIQTVPDYFYVINSERSPWGRIRECNNVIEGVTGSATLSQTEKEQLLGQAYFFRAWRYYLLVKMYGGVPIVDHVQNPVIGDGNGENLVIPRSSTKACIDFICDDLELAASYLPARWQNEGQDYGRITAGAALALKGRTLLLYASPLFNRADDASRWKDAYDANFAAITKLNEGNFGLAYEGNGGEDNAKNWARMFATYTGGSEAVFVTLYNNVSPIASQNINRYNLWEQGIRPGNINGGGGKTPTAEIIDIFPMIDGKKPMESGVHYDPKKFFLNRDPRFYRTFAFPGVEWKFNSGNVDFSGATMSGLCPTRYTSGANYELWNYCWYTTADERNNPSRSGFAADMLGTKNRGVYVRKRSDDFDLGTSLYVFTDNSSGDQQGFRRSAAPYMEIRYAEVLLNLAESACGAGGTYHAEGVKALKAVRGRVGYTSANNYGLDAAIETDRAKLFEAILYERQVELAFEGKRAYDMRRWMLFDGGVGQGALNASWALSGFGGNTCTYLGVTPMNERGKRYRIEINVEGTGSANNDSDPIKNVERPAALTLNEKIATEADGETILDPAVSSICTFYDTYFSRKDISLDGNVLDINPYFQPRYYFFGLRQSAQQTNATLYQTIGWEDYAHGGMGTFDPLAE	not soluble
MDRSFCDAGCGVGSLSLPLAQRGAQAVYASDISAKMVEEARERASQIPNLNNIQLEVSDLASLSGRYDTVICLDVLIHYPESDAAAMLSHLCSLAEQRVLVSFAPKSPVLNVLKRIGQFFPGASKTTRAYQHSETAIAAALAANGFQVQRRAFNKAPFYFSLLLEAVRTALEHHHHHH	soluble
MGSDKIHHHHHHMYCNMLISLLTFISVEILYNKSNKKYGGNDMSIVQLYDITQIKSFIEHSNYESASYLYKLPQQYNEIDVLITDAIESPGVFSIKENDSIKAIILSFAYDKNKFKVIGPFVADNYVLSVDTFETLFKAMTSNQPDDAVFNFSFEEGIQQYKPLMKVIQASYNFTDYYIEARTRLEEDMHQPNIIPYHKGFYRAFSKLHTTTFKYQAQSPQDIIDSLDDHHHLFLFVSEGLLKGYLYLEIDSQQSIAEIKYFSSHVDYRLKGIAFELLAYALQYAFDNFDIRKVYFKIRNKNNKLIERFNGLGFHINYEYIKFKFESRNVKDQTIPE	not soluble
MLIDKTIILSVAFFTSSVFGQTSDKDFLKKPHVLPSAEAAYHAVYHELDSVKSGNRDEKVFGQLYVALIEDQFTFGGDLSTWPDSAFQKGDRGCKPFMAANLHNLCNNEYFLVHQDMIKLVKTVFERKNQADPSFDTICLANNGFVVSDDPENHLVYRYKHRIPMTYKATSNDQKCFGTYDTRTDTFTCMRYDASTKKMSPFELQNFLWKENTGTFHLGNGNAEVFCKKPFYTNK	not soluble
